Results: article PMC8266636, “Rrp1 translocase and ubiquitin ligase activities restrict the genome destabilising effects of Rad51 in fission yeast” (Nucleic Acids Research, 2020)
One block for each binder: values may come before it.

Legend:
[1] = molecular target: T1, Rrp1-FLAG (purified recombinant) (S. pombe, UniProt O13762 1-897); assay: co-IP; purified Rad51 and FLAG-tagged Rrp1 (250 nM each) in IP buffer (35 mM Tris-HCl pH 7.5, 1 mM DTT, 100 mM NaCl, 3.5 mM MgCl2, 0.1% NP-40, 5% glycerol), 30 min at 30°C; precipitated with anti-FLAG M2 affinity gel 2 h at 4°C, eluted with 3xFLAG peptide, western blot; settings: both partners purified
T1 construct: Rrp1 of Schizosaccharomyces pombe, rrp1+ in pGEX-6P; only the former was removed'; read here as GST-Rrp1-3xFLAG; GST removed with HRV-3C protease; also called purified Rrp1-FLAG; FLAG-tagged Rrp1; source: E. coli Rosetta, from pGEX-6P, purified (GSH sepharose, HiTrap Heparin, Resource Q, HiTrap SP); not shown: GST, N-terminal, cleaved; 3xFLAG, C-terminal, kept
T1 sequence (looked up): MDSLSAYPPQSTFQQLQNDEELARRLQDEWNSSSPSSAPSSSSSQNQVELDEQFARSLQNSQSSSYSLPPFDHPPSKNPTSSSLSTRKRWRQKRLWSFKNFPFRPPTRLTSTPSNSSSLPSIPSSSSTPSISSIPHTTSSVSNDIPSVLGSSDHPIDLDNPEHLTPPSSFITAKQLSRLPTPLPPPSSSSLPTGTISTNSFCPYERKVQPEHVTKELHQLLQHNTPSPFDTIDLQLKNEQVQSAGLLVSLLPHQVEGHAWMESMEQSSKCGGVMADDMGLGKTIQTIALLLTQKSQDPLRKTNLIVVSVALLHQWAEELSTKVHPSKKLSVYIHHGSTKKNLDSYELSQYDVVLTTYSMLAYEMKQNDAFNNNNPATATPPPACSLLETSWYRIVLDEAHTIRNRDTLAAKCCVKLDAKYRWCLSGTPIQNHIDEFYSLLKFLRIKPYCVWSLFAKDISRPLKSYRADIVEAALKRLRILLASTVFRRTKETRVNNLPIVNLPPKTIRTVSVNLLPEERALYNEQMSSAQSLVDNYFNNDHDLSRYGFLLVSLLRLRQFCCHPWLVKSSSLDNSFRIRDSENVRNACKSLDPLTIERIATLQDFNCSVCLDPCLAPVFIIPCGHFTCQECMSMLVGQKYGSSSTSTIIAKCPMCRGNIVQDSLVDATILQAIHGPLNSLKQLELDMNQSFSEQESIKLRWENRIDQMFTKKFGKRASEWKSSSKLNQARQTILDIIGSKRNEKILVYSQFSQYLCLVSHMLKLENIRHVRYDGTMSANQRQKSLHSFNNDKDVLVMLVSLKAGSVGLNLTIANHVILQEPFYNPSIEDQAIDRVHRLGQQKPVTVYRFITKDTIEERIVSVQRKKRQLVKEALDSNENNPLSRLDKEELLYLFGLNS

Rrp1;Rad51 = molecular target: T2, Rrp1;Rad51 (Schizosaccharomyces …, UniProt O13762;P36601 1-897;1-365, |); assay: fluorescence anisotropy; 2 mM ATP; 3.5 mM Mg2+; scavenger PhiX174 ssDNA; EMSA: 25 mM HEPES pH 7.5, 1 mM DTT, 60 mM KCl, 2 mM ATP, 3.5 mM MgCl2, 5% glycerol, 37 C, 0.2% glutaraldehyde; anisotropy: 30 mM HEPES pH 7.5, 1 mM DTT, 50 mM NaCl, 100 mM KCl, 2 mM ATP, 8 mM PC, 8 U/ml CPK, 3.5 mM MgCl2, 2.5% glycerol, 37 C; settings: protein: recombinant;recombinant; tags: 3xFLAG (methods: N-terminal 3xFLAG and C-terminal GST, but construct named GST-Rrp1-FLAG); GST removed by HRV-3C;; single strand
T2 sequence 1: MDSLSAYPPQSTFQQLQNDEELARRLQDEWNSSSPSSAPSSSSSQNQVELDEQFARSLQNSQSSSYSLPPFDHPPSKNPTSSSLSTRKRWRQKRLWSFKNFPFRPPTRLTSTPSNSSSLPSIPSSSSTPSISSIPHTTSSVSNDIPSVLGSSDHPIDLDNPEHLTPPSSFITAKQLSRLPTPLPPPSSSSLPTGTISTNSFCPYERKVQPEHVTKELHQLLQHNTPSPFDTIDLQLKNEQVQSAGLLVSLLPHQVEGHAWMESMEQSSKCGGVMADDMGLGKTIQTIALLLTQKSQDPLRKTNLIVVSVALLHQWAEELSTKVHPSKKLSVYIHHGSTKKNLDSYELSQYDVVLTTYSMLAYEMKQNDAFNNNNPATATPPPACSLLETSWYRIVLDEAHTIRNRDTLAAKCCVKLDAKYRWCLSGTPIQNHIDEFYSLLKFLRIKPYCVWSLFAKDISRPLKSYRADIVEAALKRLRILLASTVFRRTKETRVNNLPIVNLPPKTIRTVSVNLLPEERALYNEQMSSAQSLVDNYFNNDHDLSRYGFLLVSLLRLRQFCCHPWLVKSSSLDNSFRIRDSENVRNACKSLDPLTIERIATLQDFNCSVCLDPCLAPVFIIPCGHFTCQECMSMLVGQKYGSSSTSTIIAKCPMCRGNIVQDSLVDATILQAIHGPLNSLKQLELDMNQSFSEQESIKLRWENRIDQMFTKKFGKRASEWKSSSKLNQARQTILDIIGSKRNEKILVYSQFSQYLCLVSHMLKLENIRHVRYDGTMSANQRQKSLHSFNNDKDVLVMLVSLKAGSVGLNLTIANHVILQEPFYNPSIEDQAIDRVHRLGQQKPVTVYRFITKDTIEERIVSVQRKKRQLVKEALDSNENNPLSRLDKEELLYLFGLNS
T2 sequence 2: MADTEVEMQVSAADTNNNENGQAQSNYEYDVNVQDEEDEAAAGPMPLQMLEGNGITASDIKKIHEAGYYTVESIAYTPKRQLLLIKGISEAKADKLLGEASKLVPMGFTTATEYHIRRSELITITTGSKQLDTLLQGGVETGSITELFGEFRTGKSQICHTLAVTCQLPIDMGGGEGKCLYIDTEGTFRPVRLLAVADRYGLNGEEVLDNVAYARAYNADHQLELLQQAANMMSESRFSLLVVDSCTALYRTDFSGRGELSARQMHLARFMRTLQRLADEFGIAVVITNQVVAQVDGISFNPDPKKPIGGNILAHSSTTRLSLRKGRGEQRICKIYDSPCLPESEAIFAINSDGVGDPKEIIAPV

Rad51 = molecular target: T3, Rad51 (Schizosaccharomyces pombe, UniProt P36601 1-365); assay: fluorescence anisotropy; 2 mM ATP; 3.5 mM Mg2+; 6 uM Rad51; scavenger ssDNA for koff; EMSA: 25 mM HEPES pH 7.5, 1 mM DTT, 60 mM KCl, 2 mM ATP, 3.5 mM MgCl2, 5% glycerol, 37 C, 0.2% glutaraldehyde; anisotropy: 30 mM HEPES pH 7.5, 1 mM DTT, 50 mM NaCl, 100 mM KCl, 2 mM ATP, 8 mM PC, 8 U/ml CPK, 3.5 mM MgCl2, 2.5% glycerol, 37 C; settings: protein: recombinant; label: 5'-TAMRA on 16A(-); blunt
T3 sequence: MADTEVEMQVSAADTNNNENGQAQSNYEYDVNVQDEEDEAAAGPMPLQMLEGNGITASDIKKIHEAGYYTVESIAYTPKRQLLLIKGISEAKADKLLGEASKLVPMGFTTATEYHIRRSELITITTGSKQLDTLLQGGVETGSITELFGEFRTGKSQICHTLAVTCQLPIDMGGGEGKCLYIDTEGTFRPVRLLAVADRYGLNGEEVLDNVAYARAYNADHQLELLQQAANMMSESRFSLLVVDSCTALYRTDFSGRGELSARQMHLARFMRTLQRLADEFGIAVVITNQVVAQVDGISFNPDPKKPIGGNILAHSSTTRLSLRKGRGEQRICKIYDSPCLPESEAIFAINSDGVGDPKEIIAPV

binding result [1]: binds
B1: Rad51 (purified) (natural protein, S. pombe, UniProt P36601 1-365, looked up)
chain: MADTEVEMQVSAADTNNNENGQAQSNYEYDVNVQDEEDEAAAGPMPLQMLEGNGITASDIKKIHEAGYYTVESIAYTPKRQLLLIKGISEAKADKLLGEASKLVPMGFTTATEYHIRRSELITITTGSKQLDTLLQGGVETGSITELFGEFRTGKSQICHTLAVTCQLPIDMGGGEGKCLYIDTEGTFRPVRLLAVADRYGLNGEEVLDNVAYARAYNADHQLELLQQAANMMSESRFSLLVVDSCTALYRTDFSGRGELSARQMHLARFMRTLQRLADEFGIAVVITNQVVAQVDGISFNPDPKKPIGGNILAHSSTTRLSLRKGRGEQRICKIYDSPCLPESEAIFAINSDGVGDPKEIIAPV
notes: Rad51 of Schizosaccharomyces pombe; also called purified Rad51

B2: oligo-dT 72-mer (ssDNA)
DNA: TTTTTTTTTTTTTTTTTTTTTTTTTTTTTTTTTTTTTTTTTTTTTTTTTTTTTTTTTTTTTTTTTTTTTTTT
binding result (Rrp1;Rad51): binds

B3: 16A(-)/16A(+) 83-mer dsDNA (dsDNA)
DNA 1: AAATGAACATAAAGTAAATAAGTATAAGGATAATACAAAATAAGTAAATGAATAAACATAGAAAATAAAGTAAAGGATATAAA
DNA 2: TTTATATCCTTTACTTTATTTTCTATGTTTATTCATTTACTTATTTTGTATTATCCTTATACTTATTTACTTTATGTTCATTT
binding result (Rad51): binds
